From patent US20200199241A1 (Chugai, published 2020)
Numbering of substitutions follows the chain as printed.

B1: IgG1-F1027 (antibody)
heavy: QVQLQESGPGLVKPSETLSLTCAVSGHSISHDHAWSWVRQPPGEGLEWIGFISYSGITNYNPSLQGRVTISRDNSKNTLYLQMNSLRAEDTAVYYCARSLARTTAMDYWGEGTLVTVSSASTKGPSVFPLAPSSKSTSGGTAALGCLVKDYFPEPVTVSWNSGALTSGVHTFPAVLQSSGLYSLSSVVTVPSSSLGTQTYICNVNHKPSNTKVDKKVEPKSCDKTHTCPPCPAPELRGGPKVFLFPPKPKDTLYISRTPEVTCVVVDVSHEDPEVKFNWYVDGVEVHNAKTKPREEQYNSTYRVVSVLAVLHHDWLNGKEYKCKVSNKALPAPIEKTISKAKGQPREPQVYTLPPSRDELTKNQVSLTCLVKGFYPSDIAVEWESNGQPENNYKTTPPVLDSDGSFFLYSKLTVDKSRWQQGNVFSCSVMHEALHYHVTQKSLSLSP
light: not shown
notes: EU numbering; copies: 2 + 2
B2: IgG1-F1100 (antibody)
heavy: B1 heavy with R237L, K241D, A309T, H313Q, K328D, L330Y, V438Y
light: not shown
notes: EU numbering; copies: 2 + 2
B3: IgG1-F1047 (antibody)
heavy: B1 heavy with R237K, N288E, A309Q, V310P, H313A
light: not shown
notes: EU numbering; copies: 2 + 2
B4: IgG1-F1051 (antibody)
heavy: B1 heavy with T252V, N288E, A309Q, V310P, H313A, M430I
light: not shown
notes: EU numbering; copies: 2 + 2
B5: IgG1-F1068 (antibody)
heavy: B1 heavy with R237L, K241S, A309T, H313Q, S426R
light: not shown
notes: EU numbering; copies: 2 + 2
B6: IgG1-F1096 (antibody)
heavy: B1 heavy with R237L, K241S, A309T, H313Q, Q388T, V438Y
light: not shown
notes: EU numbering; copies: 2 + 2
B7: IgG1-F1062 (antibody)
heavy: B1 heavy with R237L, K241S, A309T, H313Q, P389R
light: not shown
notes: EU numbering; copies: 2 + 2
B8: IgG1-F1109 (antibody)
heavy: B1 heavy with R237L, K241S, A309T, H313Q, V424T
light: not shown
notes: EU numbering; copies: 2 + 2
B9: IgG1-F1038 (antibody)
heavy: B1 heavy with R237K, P240D, A309T, H313Q, V438Y
light: not shown
notes: EU numbering; copies: 2 + 2
B10: IgG1-F1075 (antibody)
heavy: B1 heavy with R237L, K241S, A309T, H313Q, K328D, L330Y
light: not shown
notes: EU numbering; copies: 2 + 2
B11: IgG1-F1106 (antibody)
heavy: B1 heavy with R237L, K241S, A309T, H313Q, Q440R, S442E
light: not shown
notes: EU numbering; copies: 2 + 2
B12: IgG1-F1045 (antibody)
heavy: B1 heavy with R237K, A309Q, V310P, H313A, V438Y
light: not shown
notes: EU numbering; copies: 2 + 2
B13: IgG1-F1065 (antibody)
heavy: B1 heavy with R237L, K241S, A309T, H313Q, V424R
light: not shown
notes: EU numbering; copies: 2 + 2
B14: IgG1-F1029 (antibody)
heavy: B1 heavy with R237L, K241S, T252V, A309Q, H313A, I334E
light: not shown
notes: EU numbering; copies: 2 + 2
B15: IgG1-F1083 (antibody)
heavy: B1 heavy with R237L, K241S, A309T, H313Q, V438Y, S442N
light: not shown
notes: EU numbering; copies: 2 + 2
B16: IgG1-F1074 (antibody)
heavy: B1 heavy with R237L, K241D, A309T, H313Q
light: not shown
notes: EU numbering; copies: 2 + 2
B17: IgG1-F1053 (antibody)
heavy: B1 heavy with T252V, A309Q, H313A
light: not shown
notes: EU numbering; copies: 2 + 2
B18: IgG1-F1036 (antibody)
heavy: B1 heavy with R237K, N288E, A309Q, H313A
light: not shown
notes: EU numbering; copies: 2 + 2
B19: IgG1-F1080 (antibody)
heavy: B1 heavy with R237L, K241S, A309T, H313Q, S426N, V438Y
light: not shown
notes: EU numbering; copies: 2 + 2
B20: IgG1-F1094 (antibody)
heavy: B1 heavy with R237L, K241S, A309T, H313Q, V438Y, S444N
light: not shown
notes: EU numbering; copies: 2 + 2
B21: IgG1-F1077 (antibody)
heavy: B1 heavy with R237L, K241S, K250N, A309T, H313Q, V438Y
light: not shown
notes: EU numbering; copies: 2 + 2
B22: IgG1-F1081 (antibody)
heavy: B1 heavy with R237L, K241S, A309T, H313Q, V438N, Q440T
light: not shown
notes: EU numbering; copies: 2 + 2
B23: IgG1-F1034 (antibody)
heavy: B1 heavy with R237K, A309T, V310P, H313Q
light: not shown
notes: EU numbering; copies: 2 + 2
B24: IgG1-F1082 (antibody)
heavy: B1 heavy with R237L, K241S, A309T, H313Q, V438Y, Q440N
light: not shown
notes: EU numbering; copies: 2 + 2
B25: IgG1-F1035 (antibody)
heavy: B1 heavy with R237K, A309Q, V310P, H313A
light: not shown
notes: EU numbering; copies: 2 + 2
B26: IgG1-F1042 (antibody)
heavy: B1 heavy with R237K, V438Y
light: not shown
notes: EU numbering; copies: 2 + 2
B27: IgG1-F1098 (antibody)
heavy: B1 heavy with R237L, K241D, A309T, H313Q, V438Y
light: not shown
notes: EU numbering; copies: 2 + 2
B28: IgG1-F1107 (antibody)
heavy: B1 heavy with R237L, K241S, A309T, H313Q, V424D
light: not shown
notes: EU numbering; copies: 2 + 2
B29: IgG1-F1073 (antibody)
heavy: B1 heavy with R237L, K241S, A309T, H313Q, S442R
light: not shown
notes: EU numbering; copies: 2 + 2
B30: IgG1-F1043 (antibody)
heavy: B1 heavy with R237K, T252V, A309T, V310P, H313Q, V438Y
light: not shown
notes: EU numbering; copies: 2 + 2
B31: IgG1-F1070 (antibody)
heavy: B1 heavy with R237L, K241S, A309T, H313Q, Q440R
light: not shown
notes: EU numbering; copies: 2 + 2
B32: IgG1-F1061 (antibody)
heavy: B1 heavy with R237L, K241S, A309T, H313Q, P389E
light: not shown
notes: EU numbering; copies: 2 + 2
B33: IgG1-F1046 (antibody)
heavy: B1 heavy with R237K, T252V, N288E, A309Q, V310P, H313A
light: not shown
notes: EU numbering; copies: 2 + 2
B34: IgG1-F1044 (antibody)
heavy: B1 heavy with R237K, T252V, A309Q, V310P, H313A, V438Y
light: not shown
notes: EU numbering; copies: 2 + 2
B35: IgG1-F1052 (antibody)
heavy: B1 heavy with N288E, A309Q, V310P, H313A, M430I
light: not shown
notes: EU numbering; copies: 2 + 2
B36: IgG1-F1069 (antibody)
heavy: B1 heavy with R237L, K241S, A309T, H313Q, Q440E
light: not shown
notes: EU numbering; copies: 2 + 2
B37: IgG1-F1064 (antibody)
heavy: B1 heavy with R237L, K241S, A309T, H313Q, V424E
light: not shown
notes: EU numbering; copies: 2 + 2
B38: IgG1-F1059 (antibody)
heavy: B1 heavy with R237L, K241S, A309T, H313Q, Q388R
light: not shown
notes: EU numbering; copies: 2 + 2
B39: IgG1-F1111 (antibody)
heavy: B1 heavy with R237L, K241S, A309T, H313Q, S426K
light: not shown
notes: EU numbering; copies: 2 + 2
B40: IgG1-F1048 (antibody)
heavy: B1 heavy with R237K
light: not shown
notes: EU numbering; copies: 2 + 2
B41: IgG1-F1040 (antibody)
heavy: B1 heavy with R237K, T252V, A309T, H313Q
light: not shown
notes: EU numbering; copies: 2 + 2
B42: IgG1-F1058 (antibody)
heavy: B1 heavy with R237L, K241S, A309T, H313Q, Q388E
light: not shown
notes: EU numbering; copies: 2 + 2
B43: IgG1-F1097 (antibody)
heavy: B1 heavy with R237L, K241S, A309T, H313Q, G387N, P389S, V438Y
light: not shown
notes: EU numbering; copies: 2 + 2
B44: IgG1-F1105 (antibody)
heavy: B1 heavy with R237L, K241S, A309T, H313Q, V424S, S426R
light: not shown
notes: EU numbering; copies: 2 + 2
B45: IgG1-F1037 (antibody)
heavy: B1 heavy with R237K, A309Q, H313A, M430I
light: not shown
notes: EU numbering; copies: 2 + 2
B46: IgG1-F1104 (antibody)
heavy: B1 heavy with R237L, K241S, A309T, H313Q, V424E, S426R
light: not shown
notes: EU numbering; copies: 2 + 2
B47: IgG1-F1067 (antibody)
heavy: B1 heavy with R237L, K241S, A309T, H313Q, S426E
light: not shown
notes: EU numbering; copies: 2 + 2
B48: IgG1-F1101 (antibody)
heavy: B1 heavy with R237L, K241D, A309Q, H313A, V438Y
light: not shown
notes: EU numbering; copies: 2 + 2
B49: IgG1-F1050 (antibody)
heavy: B1 heavy with R237L, K241S, T252V, N288E, A309Q, V310P, H313A, M430I
light: not shown
notes: EU numbering; copies: 2 + 2
B50: IgG1-F1108 (antibody)
heavy: B1 heavy with R237L, K241S, A309T, H313Q, V424K
light: not shown
notes: EU numbering; copies: 2 + 2
B51: IgG1-F1103 (antibody)
heavy: B1 heavy with R237L, K241D, A309Q, H313A, K328D, L330Y, V438Y
light: not shown
notes: EU numbering; copies: 2 + 2
B52: IgG1-F1110 (antibody)
heavy: B1 heavy with R237L, K241S, A309T, H313Q, V424Q
light: not shown
notes: EU numbering; copies: 2 + 2
B53: IgG1-F1095 (antibody)
heavy: B1 heavy with R237L, K241S, A309T, H313Q, S385N, G387S, V438Y
light: not shown
notes: EU numbering; copies: 2 + 2
B54: IgG1-F1041 (antibody)
heavy: B1 heavy with R237K, T252V, A309Q, V310P, H313A
light: not shown
notes: EU numbering; copies: 2 + 2
B55: IgG1-F1028 (antibody)
heavy: B1 heavy with R237L, G238A, K241D, T252V, A309Q, H313A
light: not shown
notes: EU numbering; copies: 2 + 2
B56: IgG1-F1102 (antibody)
heavy: B1 heavy with R237L, K241S, A309Q, H313A, K328D, L330Y, V438Y
light: not shown
notes: EU numbering; copies: 2 + 2
B57: IgG1-F1112 (antibody)
heavy: B1 heavy with R237L, K241S, A309T, H313Q, Q440K
light: not shown
notes: EU numbering; copies: 2 + 2
B58: IgG1-F1032 (antibody)
heavy: B1 heavy with R237L, P240D, K241S, T252V, A309Q, H313A, N327G
light: not shown
notes: EU numbering; copies: 2 + 2
B59: IgG1-F1063 (antibody)
heavy: B1 heavy with R237L, K241S, A309T, H313Q, P389S
light: not shown
notes: EU numbering; copies: 2 + 2
B60: IgG1-F1066 (antibody)
heavy: B1 heavy with R237L, K241S, A309T, H313Q, V424S
light: not shown
notes: EU numbering; copies: 2 + 2

biological target: T1, soluble human FcRn complexed with β2-microglobulin (human, UniProt P61769 21-119, limits assumed); assay: Biacore SPR, pH 7.0;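 note: test antibodies captured on a Protein L chip with human FcRn flowed over as analyte, KD obtained as the ratio of dissociation to association rate constants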
T1 construct: also called hFcRn

| Kd [nM] | Binder |
| --- | --- |
| 86 | B1 |
| 241 | B2 |
| 3.4 | B3 |
| 3.9 | B4 |
| 169 | B5 |
| 272 | B6 |
| 120 | B7 |
| 127 | B8 |
| 280 | B9 |
| 140 | B10 |
| 142 | B11 |
| 25 | B12 |
| 138 | B13 |
| 51 | B14 |
| 345 | B15 |
| 132 | B16 |
| 42.3 | B17 |
| 14 | B18 |
| 319 | B19 |
| 260 | B20 |

| Kd [nM] | Binder |
| --- | --- |
| 2030 | B21 |
| 620 | B22 |
| 15 | B23 |
| 276 | B24 |
| 10 | B25 |
| 200 | B26 |
| 258 | B27 |
| 123 | B28 |
| 134 | B29 |
| 52 | B30 |
| 173 | B31 |
| 119 | B32 |
| 4.5 | B33 |
| 35 | B34 |
| 3.2 | B35 |
| 139 | B36 |
| 132 | B37 |
| 139 | B38 |
| 165 | B39 |
| 99 | B40 |

| Kd [nM] | Binder |
| --- | --- |
| 200 | B41 |
| 131 | B42 |
| 282 | B43 |
| 154 | B44 |
| 61 | B45 |
| 177 | B46 |
| 126 | B47 |
| 65.9 | B48 |
| 3.5 | B49 |
| 126 | B50 |
| 61.1 | B51 |
| 133 | B52 |
| 286 | B53 |
| 14 | B54 |
| 46 | B55 |
| 64.6 | B56 |
| 123 | B57 |
| 43 | B58 |
| 143 | B59 |
| 145 | B60 |
